Amyloid nucleation score data for 141 substances are collected here from the supplement of paper PMC12042874.

± gives the uncertainty stated by the source.

The data set is described as follows: amyloid nucleation score (Sup35N fusion, yeast selection) (log enrichment); library NNK2; higher = more nucleation; inactive = no reads after selection. Summed up:
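Nucleation score is defined as the DiMSum log enrichment of output over input reads, with centring on the mode score of non-aggregating sequences. A minimum of 100 input reads was required for each sequence. Reads came from Illumina sequencing of plasmid inserts from psi-negative yeast expressing Sup35N fused to peptides of 20 random codons, induced with 100 μM copper sulfate for 24 hours and grown 7 days at 30°C on medium lacking adenine and uracil.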
VDQCPYRFKFRVSYMMVFYM came in with an amyloid nucleation score of 5.67 ± 0.086.

As for VDVPMNMIRWSQCNQ, the amyloid nucleation score is 1.22 ± 0.59. Consider VDVRMDEWVDRTAFAWMMRV, for which the amyloid nucleation score was 0.875 ± 0.43. Regarding VDYKSFRNYTFMDHYCSPYN, the amyloid nucleation score stood at 1.08 ± 0.18. The value for VEDDDN was -0.2 ± 0.63. The value for VEFLPCLSIYSACFSLDGST was -1.37 ± 0.44; that for VEFTRVGVRLSHDVPVHDRW was 3.95 ± 0.066; that for VEFYCSTERCLYDFTNG was -2.3 ± 0.75. In turn, VEGVFLISMPPWPFYRLPSR returned an amyloid nucleation score of 0.961 ± 0.81. The value for VEMKGRWLIVNRRLGVSPQA was 0.097 ± 0.35; that for VEVSECVHVIMYFRISYNKL was 3.4 ± 0.15; that for VEWEVMGVPDSKLDRGTGTV was 1.09 ± 0.53. VFAYIHFVTLGGCLLGF: the amyloid nucleation score was 1.3 ± 0.47. The value for VFERDMLNWVSLSLDHCWCS was 1.31 ± 0.36. Then VFFNYSNCLGLA, with “inactive”.

In the case of VFGKGQWVDLIRRREDVYTN, the amyloid nucleation score is -0.759 ± 1.1. Then VFGPPWCLGHSHWILFYVGC, with -0.519 ± 1; and VFIVL, with 1.65 ± 0.41; and VFLACNDCLCVWLSVEVTSE, with “inactive”. The value for VFNWTNLHYLMAQESVMGY was 0.148 ± 0.35; that for VFQQFNS was 0.244 ± 0.62. Then VFRISLRSSLYML, with 4.13 ± 0.099. VFSCYSVQHRRLSWMSCD had an amyloid nucleation score of -0.385 ± 0.41. Then VFSLCGIYMRGHYSYWCYNK, with “inactive”; and VFTGNLICYMDGGTGFSCFQ, with 9.018 ± 0.029. Then VFVRRVGPQLFDPRSSNGVD, with 0.951 ± 0.81; and VFWNIAFNSYMQRSCYIVVF, with 2.12 ± 0.14; and VFYSWKKLVSVLTSRYGFHV, with -0.965 ± 0.78. The value for VGCCVQGNLYSSFLAMFVA was 7.352 ± 0.028.

VGCFTRSIGHAM had an amyloid nucleation score of 0.257 ± 0.23. Take VGDQF: the amyloid nucleation score entry was “inactive”. In turn, VGFLW gave an amyloid nucleation score of 2.22 ± 0.13.

As for VGFSLLNKTLCFGDRCTNIS, the amyloid nucleation score result is “inactive”.

For the substance VGGRSGE, the amyloid nucleation score is -0.159 ± 0.26.

As to VGIEEVIH, the amyloid nucleation score is -0.249 ± 0.23. Then VGLFGWRGKEGF, with -0.033 ± 0.76. VGLWLTRVPPFVYGYRGSVS had an amyloid nucleation score of 0.165 ± 1.

The substance VGPFSDH displayed an amyloid nucleation score of -0.472 ± 0.79.

The substance VGSFSTVGCR yielded an amyloid nucleation score of 0.003 ± 0.36. Then VGSLYICDLAPGKHKYCSVV, with 0.266 ± 0.56; and VGSNKGAIIGLMVGGMVVIA, with 2.33 ± 0.21. Then VGTISVFIIFHASHVGILHS, with -1.65 ± 0.53; and VGTWATFYVLTCKGEFDPGL, with 7.83 ± 0.083; and VGVYICFILGH, with 3.56 ± 0.14.

As for VGYLRELLYAEGT, the amyloid nucleation score is -0.476 ± 0.35.

VHEPAQV yielded an amyloid nucleation score of 0.352 ± 0.35. VHFASPRRACRFIRRRYTTH gave an amyloid nucleation score of 3.77 ± 0.11. Then VHLANSMLY, with 3.15 ± 0.047; and VHQRYRSVRCWNWIVM, with -0.545 ± 0.48. Then VHSLFVNIRMLCTDGFASTG, with 4.479 ± 0.038. The substance VHVVSRAQTCEFF displayed an amyloid nucleation score of 0.956 ± 0.67. Consider VIDGNKDGSMTFPVQGDALR, for which the amyloid nucleation score came out at 1.2 ± 0.48.

VIDHLRCIETSVWGVVVWRI showed an amyloid nucleation score of -0.148 ± 0.35.

For VIFSGFFYISPTADPHDSFI, the amyloid nucleation score entry is “inactive”. The value for VIFVRYWGVDYHLADLVIN was -0.563 ± 0.55. The value for VIIGIFCNSKSS was 4.33 ± 0.1; that for VIKKQCCHTYSVLTFRILNC was 0.151 ± 0.63. For the substance VIKMSVNNVELVGMDHYSCV, the amyloid nucleation score came to 0.606 ± 0.23. Then VILNYVIYL, with 10.08 ± 0.071.

Turning to VINGVHLSRVLYNPILEFIT, the amyloid nucleation score entry was “inactive”. Then VINLDKLIFVLEDNCIVFWE, with 6.374 ± 0.023.

The substance VINSLMWKFTVIMRGVMNRI showed an amyloid nucleation score of 0.12 ± 0.25. For the substance VINVKEYVGYIVSKVDKGGP, the amyloid nucleation score stood at 4.24 ± 0.049. Then VIPYILTCWVYFIDCLWRRK, with 0.948 ± 0.66. The value for VIPYVIQSYWMGMN was -1.56 ± 0.75. In turn, VISGGFMF yielded an amyloid nucleation score of 4.63 ± 0.069. In the case of VITLRGAPYTEWLLRALLAS, the amyloid nucleation score was 0.734 ± 0.81. Regarding VIWYLRMVSTCNERGVKGIE, the amyloid nucleation score result was “inactive”.

On to VIYSYMSGIVYGVMRSSPFW, for which the amyloid nucleation score entry is “inactive”. As to VKDDTSHPYRGFYYRVIRRN, the amyloid nucleation score worked out at 1.08 ± 0.16. Then VKFAGWTCSL, with -0.314 ± 0.62; and VKFCVWCGD, with 7.039 ± 0.06. Regarding VKLIETSLLSFLIE, the amyloid nucleation score is -0.33 ± 0.76. As for VKMMWNCSLVDALATRGNVV, the amyloid nucleation score was determined as 0.505 ± 0.54. Turning to VKTRCVVHCMNNFPGCMIEL, the amyloid nucleation score stood at 6.887 ± 0.065. Consider VLAILVTNLRLSSWFQSHMM, for which the amyloid nucleation score turned out to be 0.837 ± 0.52. Take VLCTRRLPLYHSSNDQ: the amyloid nucleation score is 0.128 ± 0.32.

As to VLDVVLYPGKF, the amyloid nucleation score stood at 0.176 ± 0.26. VLEKRFIRL displayed an amyloid nucleation score of -0.785 ± 0.46.

Turning to VLGYPKTSTVHALPHTTMLP, the amyloid nucleation score came to 0.943 ± 0.53. VLHCHWTGFSRSTCVHLVHF: the amyloid nucleation score was determined as 3.63 ± 0.084. The value for VLIALKLFWIVQWYICAICV was -0.099 ± 0.39; that for VLLEIY was -0.384 ± 0.65. The value for VLLLGVSVRHFKGLGVPTKR was 5.06 ± 0.065; that for VLLSITSRRVMPTSKI was 0.594 ± 0.81. Then VLMEWTLGVTHDNISDDYSD, with 2.58 ± 0.082; and VLNDFFWEHLPMGHNVGLTL, with -0.252 ± 0.55; and VLNGNLSFLSAVWFGKM, with 6.729 ± 0.053. For VLNIARVRHDKG, the amyloid nucleation score came to 3.7 ± 0.051. Then VLNITEIYFVG, with 8.125 ± 0.051; and VLRGSFKGFFYRWIKCGFEW, with -1.24 ± 0.64. The value for VLRYLDFDYRLELFIYVMHR was -1.48 ± 1.1.

On to VLSDL, for which the amyloid nucleation score is -1.18 ± 0.75. As to VLSNNFWRMSNFWVRMRHTL, the amyloid nucleation score was -0.25 ± 0.63. Then VLSSRLASIEGNKSSVGFYG, with “inactive”. The substance VLSYMFVYETMSEIFTFLVG had an amyloid nucleation score of -0.586 ± 0.49.

Substance VLSYRVHLEPARCFSGGYCY showed an amyloid nucleation score of 0.512 ± 0.19. VLTLPKRNHVHL displayed an amyloid nucleation score of 0.874 ± 0.35. Then VLVLDR, with 3.46 ± 0.073. Take VLWNKSALNSKNSRTG: the amyloid nucleation score stood at 2.57 ± 0.1. The value for VLYQGALRYGNVRRGHLIRF was 0.105 ± 1.1; that for VMCFEYYVYYDYDYTCTFNY was 0.842 ± 0.12; that for VMCFNAVSLTFVFRDMTSYY was 8.804 ± 0.05.

Turning to VMCSWVGDLWFCESIRAQEV, the amyloid nucleation score worked out at 8.035 ± 0.047.

Turning to VMCTC, the amyloid nucleation score came to 0.71 ± 0.48.

As to VMDLDAGTCWCISISGLTVR, the amyloid nucleation score turned out to be 0.533 ± 0.35. Turning to VMFILVYTLFP, the amyloid nucleation score is 0.068 ± 0.65. The value for VMFLFGGCTDNS was 0.382 ± 0.8. In turn, VMGGDVYTAFTDAEDVDSWG returned an amyloid nucleation score of 0.398 ± 0.22. The value for VMSDGMYTGKAYSLVLDMRI was “inactive”; that for VMTFMVTRTD was 6.111 ± 0.037; that for VMTYVEQVLGNVSVLIAIIT was 0.015 ± 0.33. Then VMVGLALYLKARGSNVDCGL, with 3 ± 0.17. The value for VMWLSVRL was 0.535 ± 0.44. Regarding VNAEGTVMQSWHCHCDMSVL, the amyloid nucleation score is 6.245 ± 0.043. Then VNCIASSFSLPRRTLSNSMD, with “inactive”; and VNDCYIILISIQALKGPICF, with 0.465 ± 0.8. The value for VNDKFHFILF was 0.019 ± 0.8. Then VNDLLTPCGIHLQPVWDYES, with -0.013 ± 0.49. Regarding VNGVSMMHKIVLVNR, the amyloid nucleation score is 0.058 ± 1. Take VNHLYYCFCTLITHEVRVVS: the amyloid nucleation score turned out to be 5.363 ± 0.034. The substance VNIILASMHVLLDGCS had an amyloid nucleation score of -1.08 ± 0.64. As to VNIVSIVYKGDNN, the amyloid nucleation score is 7.72 ± 0.075. Then VNLPD, with 0.15 ± 0.56. The value for VNMLTGLSKDK was -0.142 ± 0.23; that for VNMYSWVKVCWEILYTDRAG was -0.906 ± 0.41; that for VNREYLLAVTVILQNVKTEE was 8.609 ± 0.036. VNSKNYV had an amyloid nucleation score of -0.075 ± 0.39. Then VNTTDKWKVSEYKYQND, with 0.254 ± 0.19.

With VNVCTYTWLHVINERFTFQW, the amyloid nucleation score came to 6.192 ± 0.045. Substance VNYVDGWV returned an amyloid nucleation score of 1.45 ± 0.34.

With VPIKALLPHSKFGNQSRFNY, the amyloid nucleation score is 0.438 ± 0.4. Then VPSGSLD, with “inactive”.

The substance VQDAFVYFNAELRWYDILGQ came in with an amyloid nucleation score of -0.201 ± 0.37. VQEERAFKWVR had an amyloid nucleation score of 0.44 ± 0.42. The value for VQGTL was -0.718 ± 0.39. Then VQPVLCIVSCNRLNRQRAEM, with -0.498 ± 1.1; and VQRYRVFVAICFCGEMQRGF, with “inactive”; and VQSGWTSKGVLPQVANRTLR, with 0.827 ± 0.44.

For VRATCWS, the amyloid nucleation score was -0.418 ± 0.55.

On to VREYYRVERGSFGRISGGCN, for which the amyloid nucleation score is -0.748 ± 0.78.
